Assay [1] has as its target T1, cynomolgus monkey B7-H4 (cynomolgus monkey, UniProt Q7Z7D3 29-282 (human entry)).
T1 construct: On stably transfected 293 cells; also called cyno B7-H4; recombinant cynomolgus monkey B7-H4
T1 chain: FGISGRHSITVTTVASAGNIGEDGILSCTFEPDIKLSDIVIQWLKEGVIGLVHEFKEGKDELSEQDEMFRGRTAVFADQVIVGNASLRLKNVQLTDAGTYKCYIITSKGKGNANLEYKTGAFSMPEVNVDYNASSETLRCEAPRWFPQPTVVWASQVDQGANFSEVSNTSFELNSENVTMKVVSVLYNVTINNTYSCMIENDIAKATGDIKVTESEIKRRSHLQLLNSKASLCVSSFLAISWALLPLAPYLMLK
Kind of assay: Scatchard analysis, 125I-antibody radioligand cell binding on stably transfected 293 cells. The procedure:
(§1) Competition assay mixtures of 50 μL volume containing a fixed concentration of [I¹²⁵] labeled antibody and decreasing concentrations of serially diluted, unlabeled antibody were placed into 96-well plates. […] Cells were detached from the flask using Sigma Cell Dissociation Solution and were washed with binding buffer, which consisted of Dulbecco's Modified Eagle Medium (DMEM) with 1% bovine serum albumin (BSA), […] and 0.1% sodium azide. The washed cells were added to the 96 well plates at a density of 100,000 cells in 0.2 mL of binding buffer. The final concentration of the [I¹²⁵] labeled antibody in each well was ˜250 pM. The final concentration of the unlabeled antibody in the competition assay ranged from 1000 nM through ten 2-fold dilution steps to a 0 nM buffer-only assay. Competition assays were carried out in triplicate. Competition assays were incubated for 2 hours at room temperature. After the 2-hour incubation, the competition assays were transferred to a Millipore Multiscreen filter plate (Billerica, Mass.) and washed 4 times with binding buffer to separate the free from bound [I¹²⁵] labeled antibody. The filters were counted on a Wallac Wizard 1470 gamma counter (PerkinElmer Life and Analytical Sciences Inc.; Wellesley, Mass.). The binding data was evaluated using NewLigand software (Genentech), which uses the fitting algorithm of Munson and Robard to determine the binding affinity of the antibody (Munson and Robard 1980).

Assay [2] has as its target T2, human B7-H4 (human, UniProt Q7Z7D3 29-282).
T2 construct: On stably transfected 293 cells (recombinant) or on MX-1 / SKBR3 tumor cells (endogenous); the cell is named under assay; also called huB7-H4; hB7-H4
T2 sequence: T1 chain with I49L, L238F, A248S
Described as above. The procedure:
as §1

Assay [3] deals with T3, rat B7-H4 (rat, UniProt Q501W4 29-282).
T3 construct: On stably transfected 293 cells; also called recombinant rat B7-H4
T3 sequence: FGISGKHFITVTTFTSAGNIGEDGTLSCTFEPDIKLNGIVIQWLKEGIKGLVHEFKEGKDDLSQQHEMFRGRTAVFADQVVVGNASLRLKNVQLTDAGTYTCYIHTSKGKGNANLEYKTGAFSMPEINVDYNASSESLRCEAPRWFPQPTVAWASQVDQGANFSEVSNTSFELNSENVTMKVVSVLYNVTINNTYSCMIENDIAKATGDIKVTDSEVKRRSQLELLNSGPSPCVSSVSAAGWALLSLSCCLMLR
Kind of assay: Scatchard on stable cell line expressing recombinant B7-H4 (footnote 1 of the table). The procedure: Competition assay mixtures of 50 μL volume containing a fixed concentration of [I¹²⁵] labeled antibody and decreasing concentrations of serially diluted, unlabeled antibody were placed into 96-well plates. […] Cells were detached from the flask using Sigma Cell Dissociation Solution and were washed with binding buffer, which consisted of Dulbecco's Modified Eagle Medium (DMEM) with 1% bovine serum albumin (BSA), 300 mM human IgG and 0.1% sodium azide. The washed cells were added to the 96 well plates at a density of 100,000 cells in 0.2 mL of binding buffer. The final concentration of the [I¹²⁵] labeled antibody in each well was ˜250 pM. The final concentration of the unlabeled antibody in the competition assay ranged from 1000 nM through ten 2-fold dilution steps to a 0 nM buffer-only assay. Competition assays were carried out in triplicate. Competition assays were incubated for 2 hours at room temperature.

The target of assay [4] is T4, human B7-H4 S114A glycosylation mutant (human, UniProt Q7Z7D3 29-282).
T4 construct: Full-length human B7-H4 membrane construct with S114 changed to alanine to prevent N-linked glycosylation at N112-S114; transiently expressed on 293 cells; also called mutated S114A human B7-H4; recombinant human B7-H4 S114A
T4 sequence: T1 chain with I49L, S86A, L238F, A248S
Kind of assay: FACS on 293 cells transfected with S114A human B7-H4 (glycosylation independence).

Assay [5] addresses T1, cynomolgus monkey B7-H4. Kind of assay: FACS titration on 293 cells expressing recombinant cynomolgus B7-H4 (panel '293-cyno B7-H4', upper block), geometric mean fluorescence. The procedure: (§2) The fluorescent signal was acquired with a BD FACS Calibur and EC₅₀ values were determined with the Graph Pad program Prism 4.
In assay [6] the target is T5, mouse B7-H4 (mouse, UniProt Q7TSP5 29-283).
T5 construct: On stably transfected 293 cells; also called muB7-H4; recombinant mouse B7-H4
T5 sequence: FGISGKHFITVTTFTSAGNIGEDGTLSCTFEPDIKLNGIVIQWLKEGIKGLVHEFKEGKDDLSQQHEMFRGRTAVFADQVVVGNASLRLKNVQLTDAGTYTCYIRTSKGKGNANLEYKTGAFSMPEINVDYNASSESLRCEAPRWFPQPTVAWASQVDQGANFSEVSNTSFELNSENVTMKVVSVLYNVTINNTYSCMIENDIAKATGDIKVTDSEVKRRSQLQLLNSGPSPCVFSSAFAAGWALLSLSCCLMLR
Kind of assay: FACS titration on 293 cells expressing recombinant mouse B7-H4 (panel '293-mouse B7-H4', upper block), geometric mean fluorescence. The procedure: as §2

For assay [7], the target named is T2, human B7-H4. Kind of assay: Scatchard analysis, 125I-antibody radioligand cell binding on MX-1 tumor cells. The procedure: as §1
Assay [8] addresses T2, human B7-H4. The assay is described as follows: FACS titration on 293 cells expressing recombinant human B7-H4 (panel '293-human B7-H4', upper block), Dylight-650 goat anti-human IgG, geometric mean fluorescence. The procedure:
as §2

Assay [9] has as its target T2, human B7-H4. Kind of assay: Scatchard analysis on MX-1 cells; the table puts the affinity of 10 nM beside the parent antibody's 4.9 nM. The procedure: as §1, with “After the 2-hour incubation, the competition assays were transferred to a Millipore Multiscreen filter plate (Billerica, Mass.) and washed 4 times with binding buffer to separate the free from bound [I¹²⁵] labeled antibody.” left out

Assay [10] addresses T2, human B7-H4. The assay is described as follows: FACS titration on MX-1 tumor cells, endogenous human B7-H4 (panel 'MX-1 tumor cell line', upper block), geometric mean fluorescence. The procedure:
as §2

The target of assay [11] is T6, soluble B7-H4 (Ig-V; G28-V157)-Fc fusion protein (human, UniProt Q7Z7D3 28-157).
T6 construct: Engineered soluble protein; also called B7-H4-(Ig-V)-hIgG1 Fc fusion protein; soluble B7-H4 IgV-Fc fusion protein; not shown: human IgG1 Fc
T6 sequence: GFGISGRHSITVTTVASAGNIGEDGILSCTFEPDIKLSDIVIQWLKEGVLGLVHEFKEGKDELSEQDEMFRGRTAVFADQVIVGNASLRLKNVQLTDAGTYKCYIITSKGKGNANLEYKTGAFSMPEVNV
The assay is described as follows: FACS competition: soluble B7-H4 (Ig-V)-Fc against dye-labelled 22C10 on 293 cells expressing human B7-H4.

The target in assay [12] is T3, rat B7-H4. Kind of assay: Scatchard analysis, 125I-antibody radioligand cell binding on stably transfected 293 cells. The procedure: as §1
For assay [13], the target named is T5, mouse B7-H4. The description is as above. The procedure: as §1
The target of assay [14] is T2, human B7-H4. Kind of assay: Scatchard analysis, radioligand cell binding on MX-1 cells (endogenous human B7-H4). The procedure:
as §1, with “After the 2-hour incubation, the competition assays were transferred to a Millipore Multiscreen filter plate (Billerica, Mass.) and washed 4 times with binding buffer to separate the free from bound [I¹²⁵] labeled antibody.” left out

Assay [15] concerns the target T7, B7-H4 (IgV; G28-F150 including spacer S151-V157)-irrelevant (Ig-C) chimeric membrane protein (construct-88) (human, UniProt Q7Z7D3 28-157).
T7 construct: also called B7-H4 (Ig-V):MolX (Ig-C, TM, CD); Ig-chimera expressing the B7-H4 Ig-V domain; not shown: Ig-C, transmembrane and cytoplasmic parts of the unnamed irrelevant protein (MolX) that display the domain on the cell; N-terminal Herpes-gD tag
T7 sequence: T6 sequence
Kind of assay: FACS on 293 cells expressing the Ig-chimera with the B7-H4 Ig-V domain. The source says:
Briefly, 293 cells were transiently transfected with constructs 88 & 88B using polyfect.

Assay [16] deals with T3, rat B7-H4. Kind of assay: Scatchard analysis, radioligand cell binding on 293 cells expressing recombinant B7-H4. The procedure:
as §1

The target of assay [17] is T1, cynomolgus monkey B7-H4. Described as above. The procedure:
as §1

Assay [18] concerns the target T5, mouse B7-H4. The description is as above. The procedure:
as §1

For assay [19], the target named is T2, human B7-H4. The assay is described as above. The procedure:
as §1

Residue numbers refer to the chain shown, from its start.

Four molecules from patent publication US20160159910A1 (Genentech, published 2016) can be followed below.

B1: chimeric antibody ch32D6 (antibody, human IgG1, V domains shown)
VH: EVQLQQSGPDLVKPGASVKISCKASGYSFTGYYIHWMKQSHGKSLEWIGRVNPNNGDPIYNQKFRGKAILTVDQSSNTAYMELRSLTSEASAVYYCARVLFYYGSPFAYWGQGTLVTVSA
VL: DIVMTQSPSSLIVTAGEKVTMSCRSSQSLFDSGSQRNYLTWFHQKPGRPPKLLIYWASTRESGVPDRFTGSGSGTDFTLTISSVQTEDLAVYFCQNDYSFPFTFGSGTKLEEK
notes: also called antibody 32D6
The Kd is the equilibrium constant for the complex coming apart. For the molecule B1, the Kd turned out to be 3.1 nM with cynomolgus monkey B7-H4 [1] and 4.8 nM with human B7-H4 [2]. In addition, the binding result in the assay with rat B7-H4 [3] is recorded as “no binding”. Further, in [4], the “fold binding over the isotype control” value was determined as 100 fold.

B2: humanized 22C10.v2.8 (antibody, V domains shown)
VH: EVQLVQSGAEVKKPGASVKVSCKASGYTFTNFWIHWVRQAPGQGLEWIGEIDPSDSYTNYNQKFKGRVTITRDTSTSTAYLELSSLRSEDTAVYYCAREITTVDYWGQGTLVTVSS
VL: DIQMTQSPSSLSASVGDRVTITCSATSSISYMHWYQQKPGKAPKGLIYDTSKLAHGVPSRFSGSGSGTDFTLTISSLQPEDFATYYCHQRRSYPFTFGQGTKVEIK
notes: Assessed in the form of an IgG produced in 293 cells; also called hu22C10.v2.8; h22C10.v2.8
In general, EC50 refers to the midpoint of the concentration-response curve. Turning to B2, the EC50 with cynomolgus monkey B7-H4 [5] was found to be 1.19 µg/mL; with mouse B7-H4 [6], 0.97 µg/mL; with human B7-H4 [8], 1.44 µg/mL; with human B7-H4 [10] it was 0.73 µg/mL. Moreover, in the assay with human B7-H4 [7], the Kd was determined as 10 nM. In the assay with human B7-H4 [9], the “Fold to Parent mAb” value came to 0.49.

B3: chimeric antibody ch22C10 (antibody, human IgG1, V domains shown)
VH: QVQLQQPGAELVKPGTSVKLSCKASGYTFTNFWIHWVIQRPGQGLEWIGEIDPSDSYTNYNQKFKGKATLTVDKSSNTAYMQLSSLTSEDSAVYYCSREITTVDYWGQGTTLTVSS
VL: QIVLTQSPTIMSASPGEKVTLTCSATSSISYMHWYQQKPGTSPKGWIYDTSKLAHGVPARFSGSGSGTSYSLTISSMEAEDAATYYCHQRRSYPFTFGSGTKLEIK
notes: also called ch2210; parental 22C10 antibody
For the molecule B3, the EC50 with cynomolgus monkey B7-H4 [5] is 0.41 µg/mL; in the assay with mouse B7-H4 [6], 0.66 µg/mL; with human B7-H4 [8], 1.2 µg/mL; with human B7-H4 [10] it was 0.35 µg/mL. In addition, the binding result in [11] was “no binding”. For the same molecule, the Kd in the assay with rat B7-H4 [12] worked out at 5.7 nM; with cynomolgus monkey B7-H4 [1], 4.6 nM; in the assay with mouse B7-H4 [13] it was 18.3 nM; in the assay with human B7-H4 [2], 6.6 nM; in the assay with human B7-H4 [7], 4.9 nM. Further, the “fold binding over the isotype control” value in [4] is 100 fold.

B4: hu1D11.v1.9 varD (antibody)
heavy: not shown
light: DIQMTQSPSSLSASVGDRVTITCKASQGFNKYVAWYQQKPGKAPKLLIYYTSTLQPGVPSRFSGSGSGRDYTLTISSLQPEDFATYYCLQYGDLLYAFGQGTKVEIKRTVAAPSVFIFPPSDEQLKSGTASVVCLLNNFYPREAKVQWKVDNALQSGNSQESVTEQDSKDSTYSLSSTLTLSKADYEKHKVYACEVTHQGLSSPVTKSFNRGEC
notes: IgG1 / kappa; also called h1D11v1.9_VarD; h1D11v1.9varD
Turning to B4, the Kd with human B7-H4 [14] is 7.4 nM; with rat B7-H4 [16] it was 2.7 nM; with cynomolgus monkey B7-H4 [17], 3.7 nM; with mouse B7-H4 [18] it was 5 nM; in the assay with human B7-H4 [19] it was 2.9 nM. Besides, the “fold binding compared to mock transfected 293 cells” value in assay [15] was about 44 fold.
